Sequences and labels used below:
B1: wt hYAP^50-171 (domain or fragment, human, UniProt P46937-1 50-171, looked up)
chain: AGHQIVHVRGDSETDLEALFNAVMNPKTANVPQTVPMRLRKLPDSFFKPPEPKSHSRQASTDAGTAGALTPQHVRAHSSPASLQLGAVSPGTLTPTGVVSGPAATPTAQHLRQSSFEIPDDV
notes: YAP (Yes-associated protein), human, residues 50-171 of NM_001130145.2; also called hYAP wt; Wild type; source: E. coli NiCo21 (DE3), purified (HisTrap, tag cleaved by HRV 3C protease, Resource S, Superdex 75); not shown: His6, N-terminal, cleaved
B2: hYAP^50-171 Ser94Ala (domain or fragment, human, UniProt P46937-1 50-171, looked up)
chain: AGHQIVHVRGDSETDLEALFNAVMNPKTANVPQTVPMRLRKLPDAFFKPPEPKSHSRQASTDAGTAGALTPQHVRAHSSPASLQLGAVSPGTLTPTGVVSGPAATPTAQHLRQSSFEIPDDV
notes: YAP (Yes-associated protein), human, residues 50-171 of NM_001130145.2; also called hYAP Ser94Ala; source: E. coli NiCo21 (DE3), purified (HisTrap, tag cleaved by HRV 3C protease, Resource S, Superdex 75); not shown: His6, N-terminal, cleaved
B3: hYAP^50-171 Phe96Ala (domain or fragment, human, UniProt P46937-1 50-171, looked up)
chain: AGHQIVHVRGDSETDLEALFNAVMNPKTANVPQTVPMRLRKLPDSFAKPPEPKSHSRQASTDAGTAGALTPQHVRAHSSPASLQLGAVSPGTLTPTGVVSGPAATPTAQHLRQSSFEIPDDV
notes: YAP (Yes-associated protein), human, residues 50-171 of NM_001130145.2; also called hYAP Phe96Ala; source: E. coli NiCo21 (DE3), purified (HisTrap, tag cleaved by HRV 3C protease, Resource S, Superdex 75); not shown: His6, N-terminal, cleaved
B4: hYAP^50-171 Leu65Ala (domain or fragment, human, UniProt P46937-1 50-171, looked up)
chain: AGHQIVHVRGDSETDAEALFNAVMNPKTANVPQTVPMRLRKLPDSFFKPPEPKSHSRQASTDAGTAGALTPQHVRAHSSPASLQLGAVSPGTLTPTGVVSGPAATPTAQHLRQSSFEIPDDV
notes: YAP (Yes-associated protein), human, residues 50-171 of NM_001130145.2; also called hYAP Leu65Ala; source: E. coli NiCo21 (DE3), purified (HisTrap, tag cleaved by HRV 3C protease, Resource S, Superdex 75); not shown: His6, N-terminal, cleaved
B5: hYAP^50-171 Phe69Ala (domain or fragment, human, UniProt P46937-1 50-171, looked up)
chain: AGHQIVHVRGDSETDLEALANAVMNPKTANVPQTVPMRLRKLPDSFFKPPEPKSHSRQASTDAGTAGALTPQHVRAHSSPASLQLGAVSPGTLTPTGVVSGPAATPTAQHLRQSSFEIPDDV
notes: YAP (Yes-associated protein), human, residues 50-171 of NM_001130145.2; also called hYAP Phe69Ala; source: E. coli NiCo21 (DE3), purified (HisTrap, tag cleaved by HRV 3C protease, Resource S, Superdex 75); not shown: His6, N-terminal, cleaved
B6: hYAP^50-171 Arg89Ala (domain or fragment, human, UniProt P46937-1 50-171, looked up)
chain: AGHQIVHVRGDSETDLEALFNAVMNPKTANVPQTVPMRLAKLPDSFFKPPEPKSHSRQASTDAGTAGALTPQHVRAHSSPASLQLGAVSPGTLTPTGVVSGPAATPTAQHLRQSSFEIPDDV
notes: YAP (Yes-associated protein), human, residues 50-171 of NM_001130145.2; also called hYAP Arg89Ala; R89A; source: E. coli NiCo21 (DE3), purified (HisTrap, tag cleaved by HRV 3C protease, Resource S, Superdex 75); not shown: His6, N-terminal, cleaved
B7: hYAP^50-171 Leu68Ala (domain or fragment, human, UniProt P46937-1 50-171, looked up)
chain: AGHQIVHVRGDSETDLEAAFNAVMNPKTANVPQTVPMRLRKLPDSFFKPPEPKSHSRQASTDAGTAGALTPQHVRAHSSPASLQLGAVSPGTLTPTGVVSGPAATPTAQHLRQSSFEIPDDV
notes: YAP (Yes-associated protein), human, residues 50-171 of NM_001130145.2; also called hYAP Leu68Ala; source: E. coli NiCo21 (DE3), purified (HisTrap, tag cleaved by HRV 3C protease, Resource S, Superdex 75); not shown: His6, N-terminal, cleaved
B8: hYAP^50-171 Leu91Ala (domain or fragment, human, UniProt P46937-1 50-171, looked up)
chain: AGHQIVHVRGDSETDLEALFNAVMNPKTANVPQTVPMRLRKAPDSFFKPPEPKSHSRQASTDAGTAGALTPQHVRAHSSPASLQLGAVSPGTLTPTGVVSGPAATPTAQHLRQSSFEIPDDV
notes: YAP (Yes-associated protein), human, residues 50-171 of NM_001130145.2; also called hYAP Leu91Ala; source: E. coli NiCo21 (DE3), purified (HisTrap, tag cleaved by HRV 3C protease, Resource S, Superdex 75); not shown: His6, N-terminal, cleaved
B9: hYAP^50-171 Phe95Ala (domain or fragment, human, UniProt P46937-1 50-171, looked up)
chain: AGHQIVHVRGDSETDLEALFNAVMNPKTANVPQTVPMRLRKLPDSAFKPPEPKSHSRQASTDAGTAGALTPQHVRAHSSPASLQLGAVSPGTLTPTGVVSGPAATPTAQHLRQSSFEIPDDV
notes: YAP (Yes-associated protein), human, residues 50-171 of NM_001130145.2; also called hYAP Phe95Ala; source: E. coli NiCo21 (DE3), purified (HisTrap, tag cleaved by HRV 3C protease, Resource S, Superdex 75); not shown: His6, N-terminal, cleaved
B10: hYAP^50-171 Met86Ala (domain or fragment, human, UniProt P46937-1 50-171, looked up)
chain: AGHQIVHVRGDSETDLEALFNAVMNPKTANVPQTVPARLRKLPDSFFKPPEPKSHSRQASTDAGTAGALTPQHVRAHSSPASLQLGAVSPGTLTPTGVVSGPAATPTAQHLRQSSFEIPDDV
notes: YAP (Yes-associated protein), human, residues 50-171 of NM_001130145.2; also called hYAP Met86Ala; source: E. coli NiCo21 (DE3), purified (HisTrap, tag cleaved by HRV 3C protease, Resource S, Superdex 75); not shown: His6, N-terminal, cleaved
B11: N-terminally V5-tagged hTEAD4 Asp272Ala (natural protein, human, UniProt Q15561 1-434, looked up)
chain: MEGTAGTITSNEWSSPTSPEGSTASGGSQALDKPIDNDAEGVWSPDIEQSFQEALAIYPPCGRRKIILSDEGKMYGRNELIARYIKLRTGKTRTRKQVSSHIQVLARRKAREIQAKLKDQAAKDKALQSMAAMSSAQIISATAFHSSMALARGPGRPAVSGFWQGALPGQAGTSHDVKPFSQQTYAVQPPLPLPGFESPAGPAPSPSAPPAPPWQGRSVASSKLWMLEFSAFLEQQQDPDTYNKHLFVHIGQSSPSYSDPYLEAVDIRQIYAKFPEKKGGLKDLFERGPSNAFFLVKFWADLNTNIEDEGSSFYGVSSQYESPENMIITCSTKVCSFGKQVVEKVETEYARYENGHYSYRIHRSPLCEYMINFIHKLKHLPEKYMMNSVLENFTILQVVTNRDTQETLLCIAYVFEVSASEHGAQHHIYRLVKE

Experimental findings from PMC5400505, “Dissection of the interaction between the intrinsically disordered YAP protein and the transcription factor TEAD” (eLife, 2017) are described below.

The target of the first experiment is T1, N-Avitagged wt hTEAD4^217-434 (human, UniProt Q15561 217-434, acylated at Cys367 (100%)).
T1 construct: TEAD4 (TEA/ATTS domain transcription factor 4), human, residues 217-434; held on streptavidin (SA) chips; also called Wild type; source: purified; not shown: Avitag, N-terminal, kept
T1 sequence (Q15561 217-434): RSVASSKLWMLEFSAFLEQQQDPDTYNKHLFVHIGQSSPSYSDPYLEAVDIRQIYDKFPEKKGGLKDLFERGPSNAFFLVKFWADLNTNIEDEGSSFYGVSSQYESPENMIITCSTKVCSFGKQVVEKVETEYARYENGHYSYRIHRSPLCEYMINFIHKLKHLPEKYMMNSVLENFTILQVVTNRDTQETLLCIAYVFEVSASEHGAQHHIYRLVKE
The experiment can be described thus: SPR; N-Avitagged hTEAD4^217-434 proteins immobilised on Series S Sensor Chip SA, YAP^50-171 proteins as analyte; Biacore T200; 25°C (298 K); 50 mM HEPES, 100 mM KCl, 0.25 mM TCEP, 1 mM EDTA, 0.05% Tween 20, 0.05% BSA, 2% DMSO, pH 7.4; Kd from equilibrium data (Kd^eq); upper limit for Kd^eq 200 µM. Particulars: both partners purified. (In general: SPR reads the build-up and loss of mass on a sensor chip optically.)
Turning to B1, binding was put at a Kd of 0.018 µM. In other words, the double-digit nanomolar range. In turn, B2 had a dissociation constant Kd of 5.62 µM.

Molecule B3 registered a Kd of 4.75 µM. The same measure, in the same setting: in the case of B4 it was 0.794 µM; in that of B5, 6.45 µM. B6 gave a Kd of 27.4 µM.

B7 came in with a Kd of 0.464 µM. Still for that read-out and setting: next, B8: 30.6 µM. Consider B9, for which the dissociation constant (Kd) came out at 26 µM.

Molecule B10 gave a dissociation constant Kd of 2.08 µM.

For the next experiment, the target named is wt hYAP (full length) (human, UniProt P46937 1-504). As to the kind of experiment: cell-based or functional assay.
Sequence of wt hYAP (full length) (P46937 whole entry): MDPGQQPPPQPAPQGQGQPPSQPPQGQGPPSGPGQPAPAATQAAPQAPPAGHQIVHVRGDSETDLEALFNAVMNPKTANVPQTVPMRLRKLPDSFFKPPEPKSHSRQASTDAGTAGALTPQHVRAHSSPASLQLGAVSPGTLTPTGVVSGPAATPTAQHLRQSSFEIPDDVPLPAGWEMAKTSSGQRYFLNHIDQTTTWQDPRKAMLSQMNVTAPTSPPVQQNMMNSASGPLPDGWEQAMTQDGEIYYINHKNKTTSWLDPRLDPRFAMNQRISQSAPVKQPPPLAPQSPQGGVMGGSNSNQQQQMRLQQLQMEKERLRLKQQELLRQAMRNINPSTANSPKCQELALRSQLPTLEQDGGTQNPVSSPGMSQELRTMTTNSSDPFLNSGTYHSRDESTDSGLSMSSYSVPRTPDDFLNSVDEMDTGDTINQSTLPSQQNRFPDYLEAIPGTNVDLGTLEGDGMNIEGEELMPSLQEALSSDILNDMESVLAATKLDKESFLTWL
Settings: not given
As for B11, the “MCAT_Luc reporter luciferase activity in HEK293::MCAT_Luc cells co-transfected with wt hYAP; against wt hTEAD4” value is ~4 fold reduction.

As usually defined, the Kd is the constant that tells how readily two partners part at equilibrium.
